Experimental data taken from PMC4808492.
Like-named read-outs stand apart in the source and are kept apart here.

Columns and labels:
[1] = molecular target: cation-independent M6P receptor (CI-MPR), on an affinity column (UniProt P08169); test: CI-MPR affinity column
[2] = molecular target: cation-independent M6P receptor (CI-MPR), on an affinity column (UniProt P08169); test: CI-MPR affinity column; remark: listed apart in the source

Chain of UniProt P08169 (P08169 45-2499): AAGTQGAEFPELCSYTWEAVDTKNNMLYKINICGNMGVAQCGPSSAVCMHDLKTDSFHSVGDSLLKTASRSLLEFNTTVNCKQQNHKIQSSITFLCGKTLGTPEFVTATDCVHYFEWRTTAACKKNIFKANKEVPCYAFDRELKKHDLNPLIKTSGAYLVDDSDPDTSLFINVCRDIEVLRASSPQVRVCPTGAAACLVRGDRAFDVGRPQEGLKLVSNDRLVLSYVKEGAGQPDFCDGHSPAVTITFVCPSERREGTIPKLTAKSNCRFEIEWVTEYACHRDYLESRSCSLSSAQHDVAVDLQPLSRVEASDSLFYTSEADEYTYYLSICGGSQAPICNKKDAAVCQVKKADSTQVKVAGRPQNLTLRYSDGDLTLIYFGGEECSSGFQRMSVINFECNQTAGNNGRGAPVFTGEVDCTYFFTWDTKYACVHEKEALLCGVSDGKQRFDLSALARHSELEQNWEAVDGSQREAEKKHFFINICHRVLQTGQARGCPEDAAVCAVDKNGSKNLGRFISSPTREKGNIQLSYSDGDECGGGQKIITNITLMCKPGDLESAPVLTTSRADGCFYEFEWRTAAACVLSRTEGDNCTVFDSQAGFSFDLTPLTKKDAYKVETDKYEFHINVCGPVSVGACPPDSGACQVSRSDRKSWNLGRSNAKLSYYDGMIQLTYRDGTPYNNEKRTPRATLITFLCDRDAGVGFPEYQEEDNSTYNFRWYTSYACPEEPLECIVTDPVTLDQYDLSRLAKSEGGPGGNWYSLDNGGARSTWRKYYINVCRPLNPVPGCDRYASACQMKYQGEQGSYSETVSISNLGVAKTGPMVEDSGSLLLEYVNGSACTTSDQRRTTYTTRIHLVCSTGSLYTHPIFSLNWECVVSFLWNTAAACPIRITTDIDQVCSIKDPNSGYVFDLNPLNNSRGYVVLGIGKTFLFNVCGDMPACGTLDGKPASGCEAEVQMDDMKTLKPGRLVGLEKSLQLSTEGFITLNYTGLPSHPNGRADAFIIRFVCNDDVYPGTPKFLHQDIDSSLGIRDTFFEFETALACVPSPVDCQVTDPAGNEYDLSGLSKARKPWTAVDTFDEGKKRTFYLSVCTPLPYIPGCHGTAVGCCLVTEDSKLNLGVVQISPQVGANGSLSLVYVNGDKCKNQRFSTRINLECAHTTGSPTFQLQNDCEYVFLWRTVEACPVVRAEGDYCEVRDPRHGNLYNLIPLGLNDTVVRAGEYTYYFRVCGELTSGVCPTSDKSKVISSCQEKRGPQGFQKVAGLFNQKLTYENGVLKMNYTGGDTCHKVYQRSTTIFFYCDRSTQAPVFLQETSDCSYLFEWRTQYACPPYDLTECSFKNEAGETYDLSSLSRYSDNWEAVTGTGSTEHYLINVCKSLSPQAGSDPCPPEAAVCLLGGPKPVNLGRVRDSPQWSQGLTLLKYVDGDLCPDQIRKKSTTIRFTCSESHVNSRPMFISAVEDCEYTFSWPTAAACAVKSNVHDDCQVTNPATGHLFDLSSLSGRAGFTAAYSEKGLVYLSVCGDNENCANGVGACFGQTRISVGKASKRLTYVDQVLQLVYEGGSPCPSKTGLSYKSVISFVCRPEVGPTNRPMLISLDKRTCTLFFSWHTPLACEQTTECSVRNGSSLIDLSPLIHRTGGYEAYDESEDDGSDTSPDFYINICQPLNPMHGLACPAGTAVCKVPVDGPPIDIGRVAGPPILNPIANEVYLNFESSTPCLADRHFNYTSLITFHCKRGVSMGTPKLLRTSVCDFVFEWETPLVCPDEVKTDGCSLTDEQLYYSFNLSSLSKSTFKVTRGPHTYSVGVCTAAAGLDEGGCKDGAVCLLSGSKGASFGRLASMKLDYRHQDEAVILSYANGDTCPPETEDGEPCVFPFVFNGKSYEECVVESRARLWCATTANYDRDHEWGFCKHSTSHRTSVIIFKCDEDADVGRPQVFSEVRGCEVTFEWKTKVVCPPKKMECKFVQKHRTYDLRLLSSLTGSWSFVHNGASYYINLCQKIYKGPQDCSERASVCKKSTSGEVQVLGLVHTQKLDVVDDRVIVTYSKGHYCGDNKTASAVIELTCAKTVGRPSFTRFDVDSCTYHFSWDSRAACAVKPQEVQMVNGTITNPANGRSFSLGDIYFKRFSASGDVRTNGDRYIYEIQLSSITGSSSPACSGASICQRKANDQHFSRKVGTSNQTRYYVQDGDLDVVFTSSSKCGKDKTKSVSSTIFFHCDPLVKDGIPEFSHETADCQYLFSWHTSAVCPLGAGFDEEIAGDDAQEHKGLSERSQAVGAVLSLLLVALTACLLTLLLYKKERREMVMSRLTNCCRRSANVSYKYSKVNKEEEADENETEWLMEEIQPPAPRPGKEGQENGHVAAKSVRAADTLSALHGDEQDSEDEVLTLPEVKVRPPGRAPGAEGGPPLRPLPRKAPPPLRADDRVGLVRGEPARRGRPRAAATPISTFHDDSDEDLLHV

| percent of enzyme activity bound to the column [1] [%] | percent of enzyme activity bound to the column [2] [%] | Substance |
| --- | --- | --- |
| 5 | – | zebrafish cathepsin D (Ctsd) from MLII (gnptab morphant) embryos (enzyme) |
| 16 | 24.2 | zebrafish cathepsin D (Ctsd) from WT animals (enzyme) |
| 17.2 | – | zebrafish cathepsin K (Ctsk) from MLII (gnptab morphant) embryos (enzyme) |
| 86 | 93.1 | zebrafish cathepsin K (Ctsk) from WT animals (enzyme) |
